According to publication PMC11472046 (2024):

Tests used:
H3K9me0 mononucleosome = test: apparent K1/2 by EMSA
H3K9me3 mononucleosome = H3K9me3 mononucleosome (trimethyl-lysine at 9 (H3K9me3)); test: apparent K1/2 by EMSA

Row | Kd (H3K9me0 mononucleosome) [nM] | Kd (H3K9me3 mononucleosome) [nM] | Binder
1 | 134 | 66 | Chp2-WT (recombinant) (natural protein) MVKSADLDLMNSIISESDENFSPPPFTVEEAENSINNKSSTASLESPQNGSWHPSLYGLSVPEKTHIQNSLDLYSHGNSGSQKTHNVSFSCEIRKVKSSKLSPISNMEDSEDKKEEDESSSYKNEFKSSSSASVSSNFEKTSGSDDHNSQSPVPLNEGFEYIASSGSEDKNSDEEFAVEMILDSRMKKDGSGFQYYLKWEGYDDPSDNTWNDEEDCAGCLELIDAYWESRGGKPDLSSLIRLTRSRARSSNEASYVEKDESSNSDDSISYKRRRSRNAANRITDYVDSDLSESSMKEKQSKIEKYMKSDKSSKNFKPPFQKKSWEDLVDCVKTVQQLDNGKLIAKIKWKNGYVSTHDNIIIHQKCPLKIIEYYEAHIKFT
2 | 135 | 145 | Chp2 W199A (recombinant) (natural protein) MVKSADLDLMNSIISESDENFSPPPFTVEEAENSINNKSSTASLESPQNGSWHPSLYGLSVPEKTHIQNSLDLYSHGNSGSQKTHNVSFSCEIRKVKSSKLSPISNMEDSEDKKEEDESSSYKNEFKSSSSASVSSNFEKTSGSDDHNSQSPVPLNEGFEYIASSGSEDKNSDEEFAVEMILDSRMKKDGSGFQYYLKAEGYDDPSDNTWNDEEDCAGCLELIDAYWESRGGKPDLSSLIRLTRSRARSSNEASYVEKDESSNSDDSISYKRRRSRNAANRITDYVDSDLSESSMKEKQSKIEKYMKSDKSSKNFKPPFQKKSWEDLVDCVKTVQQLDNGKLIAKIKWKNGYVSTHDNIIIHQKCPLKIIEYYEAHIKFT
